Legend:
HLA-A*32:01 = experiment: IEDB peptide-MHC binding, purified MHC/competitive/radioactivity; filed as Kd, often an IC50 or EC50 that approximates it; ≥ and ≤ were set here for values at or beyond the usual limits of such assays; conditions: source organism: Dengue virus 1 Brazil/97-11/1997
HLA-B*57:01 [1] = experiment: as above
HLA-B*51:01 [2] = experiment: IEDB peptide-MHC binding, purified MHC/direct/fluorescence; filed as Kd, often an IC50 or EC50 that approximates it; ≥ and ≤ were set here for values at or beyond the usual limits of such assays
HLA-B*15:01 = experiment: as above
HLA-B*07:02 = experiment: as above
HLA-B*58:01 [3] = experiment: IEDB peptide-MHC binding, purified MHC/competitive/radioactivity; filed as Kd, often an IC50 or EC50 that approximates it; ≥ and ≤ were set here for values at or beyond the usual limits of such assays
HLA-B*27:05 = experiment: IEDB peptide-MHC binding, purified MHC/direct/fluorescence; filed as Kd, often an IC50 or EC50 that approximates it; ≥ and ≤ were set here for values at or beyond the usual limits of such assays
HLA-A*01:01 [4] = experiment: as above
HLA-B*48:01 = experiment: as above
HLA-A*11:01 [5] = experiment: as above
HLA-B*46:01 = experiment: as above
HLA-B*39:01 = experiment: as above
HLA-A*03:01 = experiment: as above
HLA-A*02:01 [6] = experiment: as above
HLA-B*58:01 [7] = experiment: as above
HLA-B*57:01 [8] = experiment: as above
HLA-A*31:01 = experiment: as above
HLA-B*44:02 = experiment: as above
HLA-A*29:02 = experiment: as above
HLA-B*40:01 = experiment: as above
HLA-B*18:01 = experiment: as above
HLA-B*08:01 = experiment: as above
HLA-A*69:01 = experiment: as above
HLA-A*11:01 [9] = experiment: IEDB peptide-MHC binding, purified MHC/competitive/radioactivity; filed as Kd, often an IC50 or EC50 that approximates it; ≥ and ≤ were set here for values at or beyond the usual limits of such assays; conditions: source organism: Dengue virus 3 Martinique/1243/1999
HLA-A*02:16 = experiment: IEDB peptide-MHC binding, purified MHC/competitive/fluorescence; filed as Kd, often an IC50 or EC50 that approximates it; ≥ and ≤ were set here for values at or beyond the usual limits of such assays; conditions: source organism: Entamoeba histolytica HM-1:IMSS
HLA-A*02:01 [10] = experiment: as above; conditions: source organism: Entamoeba histolytica HM-1:IMSS
HLA-B*53:01 = experiment: IEDB peptide-MHC binding, purified MHC/competitive/radioactivity; filed as Kd, often an IC50 or EC50 that approximates it; ≥ and ≤ were set here for values at or beyond the usual limits of such assays
HLA-B*51:01 [11] = experiment: IEDB peptide-MHC binding, purified MHC/competitive/fluorescence; filed as Kd, often an IC50 or EC50 that approximates it; ≥ and ≤ were set here for values at or beyond the usual limits of such assays; conditions: source organism: Orthohantavirus andesense
HLA-B*15:17 = experiment: as above; conditions: source organism: Orthohantavirus andesense
HLA-B*27:03 = experiment: as above; conditions: source organism: Orthohantavirus andesense
HLA-A*26:01 [12] = experiment: as above; conditions: source organism: Orthohantavirus andesense
HLA-A*02:12 = experiment: IEDB peptide-MHC binding, purified MHC/direct/fluorescence; filed as Kd, often an IC50 or EC50 that approximates it; ≥ and ≤ were set here for values at or beyond the usual limits of such assays; conditions: source organism: Orthohantavirus andesense
HLA-A*68:02 = experiment: as above; conditions: source organism: Orthohantavirus andesense
HLA-A*26:01 [13] = experiment: as above; conditions: source organism: Brucella abortus
HLA-A*01:01 [14] = experiment: IEDB peptide-MHC binding, purified MHC/competitive/radioactivity; filed as Kd, often an IC50 or EC50 that approximates it; ≥ and ≤ were set here for values at or beyond the usual limits of such assays; conditions: source organism: Dengue virus 3 Sri Lanka/1266/2000
HLA-B*45:06 = experiment: IEDB peptide-MHC binding, purified MHC/competitive/fluorescence; filed as Kd, often an IC50 or EC50 that approximates it; ≥ and ≤ were set here for values at or beyond the usual limits of such assays; conditions: source organism: Orthohantavirus puumalaense
HLA-B*15:42 = experiment: as above; conditions: source organism: Orthohantavirus puumalaense
HLA-B*83:01 = experiment: as above; conditions: source organism: Orthohantavirus puumalaense
[15] = source organism: Dengue virus 1 Brazil/97-11/1997
[16] = source organism: Yersinia pestis
[17] = source organism: Dengue virus 1 Singapore/S275/1990
[18] = source organism: Mammarenavirus machupoense
[19] = source organism: Mycobacterium tuberculosis
[20] = source organism: Mycobacterium tuberculosis str. Haarlem
[21] = source organism: Mammarenavirus juninense
[22] = source organism: Dengue virus 3 Martinique/1243/1999
[23] = source organism: Dengue virus 4 Philippines/H241/1956
[24] = source organism: Orthohantavirus andesense
[25] = source organism: Brucella melitensis
[26] = source organism: Brucella abortus
[27] = source organism: Orthohantavirus hantanense
[28] = source organism: Dengue virus 2 Jamaica/1409/1983

Sequence: RVWIEENPW
- Kd (HLA-A*32:01): 0.058 µM
- Kd (HLA-B*57:01 [1]; [15]): 0.0027 µM

Sequence: WANDFNHHY
- Kd (HLA-B*51:01 [2]; [16]): ≥ 20 µM
- Kd (HLA-B*15:01; source organism: Yersinia pestis CA88-4125): 0.029 µM
- Kd (HLA-B*07:02; [16]): ≥ 20 µM

Sequence: GASHNILVEV
- Kd (HLA-B*58:01 [3]; [17]): 9.64 µM
- Kd (HLA-B*57:01 [1]; [17]): 0.785 µM

Sequence: FHEFLSSKL
- Kd (HLA-B*27:05; [18]): ≥ 20 µM
- Kd (HLA-A*01:01 [4]; [18]): ≥ 20 µM
- Kd (HLA-B*48:01; [18]): ≥ 20 µM
- Kd (HLA-B*15:01; [18]): ≥ 20 µM
- Kd (HLA-A*11:01 [5]; [18]): ≥ 20 µM
- Kd (HLA-B*07:02; [18]): ≥ 20 µM
- Kd (HLA-B*46:01; [18]): ≥ 20 µM
- Kd (HLA-B*39:01; [18]): 0.0731 µM
- Kd (HLA-A*03:01; [18]): ≥ 20 µM
- Kd (HLA-A*02:01 [6]; [18]): ≥ 20 µM
- Kd (HLA-B*58:01 [7]; [18]): ≥ 20 µM
- Kd (HLA-B*57:01 [8]; [18]): ≥ 20 µM
- Kd (HLA-A*31:01; [18]): ≥ 20 µM
- Kd (HLA-B*44:02; [18]): ≥ 20 µM

Sequence: QTYMYTGQY
- Kd (HLA-A*01:01 [4]; [19]): 0.512 µM
- Kd (HLA-A*29:02; [20]): 0.017 µM

Sequence: QVKRREGMF
- Kd (HLA-B*27:05; [21]): ≥ 20 µM
- Kd (HLA-A*01:01 [4]; [21]): ≥ 20 µM
- Kd (HLA-B*40:01; [21]): ≥ 20 µM
- Kd (HLA-B*48:01; [21]): ≥ 20 µM
- Kd (HLA-B*18:01; [21]): ≥ 20 µM
- Kd (HLA-A*29:02; [21]): ≥ 20 µM
- Kd (HLA-A*11:01 [5]; [21]): ≥ 20 µM
- Kd (HLA-B*07:02; [21]): ≥ 20 µM
- Kd (HLA-B*46:01; [21]): ≥ 20 µM
- Kd (HLA-B*08:01; [21]): 1.55 µM
- Kd (HLA-A*69:01; [21]): ≥ 20 µM
- Kd (HLA-A*03:01; [21]): ≥ 20 µM
- Kd (HLA-A*02:01 [6]; [21]): ≥ 20 µM
- Kd (HLA-B*58:01 [7]; [21]): ≥ 20 µM
- Kd (HLA-B*57:01 [8]; [21]): ≥ 20 µM
- Kd (HLA-A*31:01; [21]): ≥ 20 µM
- Kd (HLA-B*44:02; [21]): ≥ 20 µM

Sequence: ASSMINGVVK
- Kd (HLA-A*11:01 [9]): 0.0392 µM
- Kd (HLA-B*58:01 [3]; [22]): 1.3 µM
- Kd (HLA-B*57:01 [1]; [22]): 15.7 µM

Sequence: QASTTEAILP
- Kd (HLA-B*58:01 [3]; [22]): 1.52 µM
- Kd (HLA-B*57:01 [1]; [22]): 1.96 µM

Sequence: SLKERIDML
- Kd (HLA-A*02:16): 0.0028 µM
- Kd (HLA-A*02:01 [10]): 0.0013 µM

Sequence: IGIGVLLTW
- Kd (HLA-B*53:01; [22]): 1.14 µM
- Kd (HLA-B*58:01 [3]; [22]): 0.0116 µM
- Kd (HLA-B*57:01 [1]; [22]): 0.192 µM

Sequence: GTSETFSMGL
- Kd (HLA-B*57:01 [1]; [23]): 13.5 µM

Sequence: AYDHGNVIL
- Kd (HLA-B*51:01 [11]): ≥ 20 µM
- Kd (HLA-B*15:17): ≥ 20 µM
- Kd (HLA-B*27:03): ≥ 20 µM
- Kd (HLA-A*26:01 [12]): ≥ 20 µM
- Kd (HLA-B*27:05; [24]): ≥ 20 µM
- Kd (HLA-A*01:01 [4]; [24]): ≥ 20 µM
- Kd (HLA-B*40:01; [24]): ≥ 20 µM
- Kd (HLA-A*02:12): ≥ 20 µM
- Kd (HLA-B*48:01; [24]): ≥ 20 µM
- Kd (HLA-B*18:01; [24]): ≥ 20 µM
- Kd (HLA-A*29:02; [24]): ≥ 20 µM
- Kd (HLA-B*15:01; [24]): ≥ 20 µM
- Kd (HLA-A*11:01 [5]; [24]): ≥ 20 µM
- Kd (HLA-B*07:02; [24]): ≥ 20 µM
- Kd (HLA-B*46:01; [24]): ≥ 20 µM
- Kd (HLA-A*69:01; [24]): ≥ 20 µM
- Kd (HLA-B*39:01; [24]): 0.0657 µM
- Kd (HLA-A*68:02): ≥ 20 µM
- Kd (HLA-A*03:01; [24]): ≥ 20 µM
- Kd (HLA-A*02:01 [6]; [24]): ≥ 20 µM
- Kd (HLA-B*58:01 [7]; [24]): ≥ 20 µM
- Kd (HLA-B*57:01 [8]; [24]): ≥ 20 µM
- Kd (HLA-A*31:01; [24]): ≥ 20 µM
- Kd (HLA-B*44:02; [24]): ≥ 20 µM

Sequence: IASLVMLLVH
- Kd (HLA-B*58:01 [3]; [23]): 1.73 µM
- Kd (HLA-B*57:01 [1]; [23]): 0.435 µM

Sequence: TTLSLDYAW
- Kd (HLA-B*53:01; [15]): 0.0709 µM
- Kd (HLA-A*32:01): 0.114 µM
- Kd (HLA-B*58:01 [3]; [15]): 0.00166 µM
- Kd (HLA-B*57:01 [1]; [15]): 0.000617 µM

Sequence: GGWRLSAQW
- Kd (HLA-B*57:01 [1]; [22]): 0.179 µM

Sequence: GRDHVRVTL
- Kd (HLA-B*27:05; [25]): 0.315 µM
- Kd (HLA-A*01:01 [4]; [26]): ≥ 20 µM
- Kd (HLA-B*40:01; [25]): ≥ 5 µM
- Kd (HLA-B*15:01; [26]): ≥ 20 µM
- Kd (HLA-A*11:01 [5]; [26]): ≥ 20 µM
- Kd (HLA-B*07:02; [26]): ≥ 20 µM
- Kd (HLA-B*08:01; [25]): 2.56 µM
- Kd (HLA-A*69:01; [26]): ≥ 20 µM
- Kd (HLA-B*39:01; source organism: Brucella suis 1330): 0.053 µM
- Kd (HLA-A*03:01; [26]): ≥ 20 µM
- Kd (HLA-A*02:01 [6]; [26]): ≥ 20 µM
- Kd (HLA-B*58:01 [7]; [26]): ≥ 20 µM
- Kd (HLA-A*26:01 [13]): ≥ 20 µM
- Kd (HLA-A*31:01; [26]): ≥ 20 µM
- Kd (HLA-B*44:02; [26]): ≥ 20 µM

Sequence: SAHSADGHY
- Kd (HLA-A*01:01 [4]; [19]): ≥ 20 µM
- Kd (HLA-A*29:02; [20]): 0.02 µM

Sequence: VSSVNMVSRL
- Kd (HLA-A*01:01 [14]): 10.7 µM
- Kd (HLA-B*57:01 [1]; source organism: Dengue virus 3 Sri Lanka/1266/2000): 1.03 µM

Sequence: AELGAFFSI
- Kd (HLA-B*45:06): ≥ 5 µM
- Kd (HLA-B*15:42): ≥ 5 µM
- Kd (HLA-B*83:01): ≥ 5 µM
- Kd (HLA-B*40:01; source organism: Amur virus): ≤ 0.001 µM
- Kd (HLA-B*18:01; source organism: Amur virus): 0.0408 µM

Sequence: AVRTDGSNI
- Kd (HLA-B*51:01 [2]; [27]): ≥ 20 µM
- Kd (HLA-B*07:02; [27]): 0.261 µM

Sequence: AASIILEFFL
- Kd (HLA-B*58:01 [3]; [28]): 0.366 µM
- Kd (HLA-B*57:01 [1]; [28]): 2.27 µM

Reference: the Immune Epitope Database (IEDB)
